Measurements from paper PMC8679000, “Biochemical Characterizations of Human TMPK Mutations Identified in Patients with Severe Microcephaly: Single Amino Acid Substitutions Impair Dimerization and Abolish Their Catalytic Activity” (ACS Omega, 2021).

Molecular target: the molecule itself
Test: SEC; Superdex G200; 10 mM Tris/HCl pH 7.6, 100 mM NaCl, 5 mM MgCl2, 5 mM DTT; 200 ug protein injected, 0.4 mL/min; 0.4 mL fractions analysed by TMPK activity and Western blot; size markers BSA, ovalbumin, cytochrome C

B1: wild-type human deoxythymidylate kinase (TMPK) (enzyme, UniProt P23919 1-212, looked up)
chain: MAARRGALIVLEGVDRAGKSTQSRKLVEALCAAGHRAELLRFPERSTEIGKLLSSYLQKKSDVEDHSVHLLFSANRWEQVPLIKEKLSQGVTLVVDRYAFSGVAFTGAKENFSLDWCKQPDVGLPKPDLVLFLQLQLADAAKRGAFGHERYENGAFQERALRCFHQLMKDTTLNWKMVDASKSIEAVHEDIRVLSEDAIRTATEKPLGELWK
notes: The pET-14b vector with N-terminal 6xHis tag is stated for the mutants only; the WT was 'run in parallel'; also called WT TMPK; WT; not shown: His6 (inferred from the mutants' construct)
- stoichiometry N: 2
